Biological target: human alpha-synuclein (wild-type, recombinant) (human)
Experiment: cell-based or functional assay

Sequence of Polo like kinase 2 (PLK2) (enzyme) (chain): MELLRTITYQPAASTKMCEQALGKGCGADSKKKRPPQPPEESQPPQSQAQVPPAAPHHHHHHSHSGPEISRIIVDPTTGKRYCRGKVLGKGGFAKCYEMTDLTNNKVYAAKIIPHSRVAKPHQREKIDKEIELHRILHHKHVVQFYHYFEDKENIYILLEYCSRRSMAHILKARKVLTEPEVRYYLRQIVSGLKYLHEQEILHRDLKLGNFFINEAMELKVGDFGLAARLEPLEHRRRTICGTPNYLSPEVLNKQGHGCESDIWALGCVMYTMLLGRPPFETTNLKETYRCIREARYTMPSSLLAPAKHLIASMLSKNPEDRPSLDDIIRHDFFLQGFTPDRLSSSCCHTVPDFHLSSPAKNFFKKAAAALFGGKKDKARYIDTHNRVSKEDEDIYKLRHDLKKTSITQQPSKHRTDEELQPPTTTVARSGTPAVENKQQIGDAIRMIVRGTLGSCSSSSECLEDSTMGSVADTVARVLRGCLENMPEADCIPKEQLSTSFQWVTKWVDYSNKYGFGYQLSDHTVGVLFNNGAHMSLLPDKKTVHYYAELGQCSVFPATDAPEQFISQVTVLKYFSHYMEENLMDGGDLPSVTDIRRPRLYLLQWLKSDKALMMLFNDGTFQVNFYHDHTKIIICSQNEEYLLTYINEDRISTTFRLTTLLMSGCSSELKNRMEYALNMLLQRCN
Sequence of G protein-coupled receptor kinase 6 (P43250 whole entry): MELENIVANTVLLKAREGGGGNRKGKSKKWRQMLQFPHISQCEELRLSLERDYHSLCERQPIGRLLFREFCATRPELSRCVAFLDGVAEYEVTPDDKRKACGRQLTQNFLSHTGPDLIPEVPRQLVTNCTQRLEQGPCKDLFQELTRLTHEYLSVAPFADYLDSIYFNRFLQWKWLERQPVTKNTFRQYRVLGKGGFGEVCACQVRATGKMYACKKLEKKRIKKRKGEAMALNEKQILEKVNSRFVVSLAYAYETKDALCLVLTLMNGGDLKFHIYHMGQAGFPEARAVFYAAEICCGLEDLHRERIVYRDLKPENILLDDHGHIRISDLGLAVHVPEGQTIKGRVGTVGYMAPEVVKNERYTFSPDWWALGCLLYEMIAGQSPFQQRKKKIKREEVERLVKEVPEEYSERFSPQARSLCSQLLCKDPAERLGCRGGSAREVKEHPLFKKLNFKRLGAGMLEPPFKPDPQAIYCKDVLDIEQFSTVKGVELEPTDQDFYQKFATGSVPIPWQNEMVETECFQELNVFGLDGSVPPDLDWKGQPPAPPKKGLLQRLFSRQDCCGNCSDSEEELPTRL
Sequence of Aortic preferentially expressed gene 1 (Q15772 other isoform, or with tags, fused parts or gaps limits assumed): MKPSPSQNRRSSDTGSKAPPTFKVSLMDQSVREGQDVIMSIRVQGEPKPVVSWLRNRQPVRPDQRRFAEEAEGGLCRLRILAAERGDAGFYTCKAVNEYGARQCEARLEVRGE
Sequence of CDC7 cell division cycle 7-like 1 (O00311 whole entry): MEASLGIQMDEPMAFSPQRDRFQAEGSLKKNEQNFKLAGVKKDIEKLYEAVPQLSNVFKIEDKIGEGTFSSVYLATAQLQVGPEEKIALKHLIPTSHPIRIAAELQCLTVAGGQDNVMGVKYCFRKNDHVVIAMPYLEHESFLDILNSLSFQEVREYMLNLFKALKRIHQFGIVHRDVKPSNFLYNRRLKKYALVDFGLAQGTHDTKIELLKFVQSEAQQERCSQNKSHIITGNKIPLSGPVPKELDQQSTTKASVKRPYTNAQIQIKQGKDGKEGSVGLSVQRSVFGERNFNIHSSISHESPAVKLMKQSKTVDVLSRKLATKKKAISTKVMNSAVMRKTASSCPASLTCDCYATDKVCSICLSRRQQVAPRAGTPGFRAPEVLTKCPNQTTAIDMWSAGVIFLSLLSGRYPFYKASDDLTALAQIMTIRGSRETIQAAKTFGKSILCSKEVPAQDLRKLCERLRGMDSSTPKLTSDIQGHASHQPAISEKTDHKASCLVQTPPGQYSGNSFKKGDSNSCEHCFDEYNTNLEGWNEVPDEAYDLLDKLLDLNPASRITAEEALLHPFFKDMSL

percent phospho-synuclein by ELISA, cDNA transfected into PEAK-Syn cells [%] | percentage of phospho-synuclein by ELISA, cDNA transfected into PEAK-Syn cells [%] | Substance | other results
33.2 |  | Polo like kinase 2 (PLK2) (enzyme) | percent phospho-synuclein by ELISA, PLK2 alone transfected into HEK-synuclein cells: 18.6%; percent phospho-synuclein by ELISA, PLK2 and synuclein co-transfected into naive HEK cells: 60%; percent synuclein phosphorylation by ELISA, PLK2 positive control in HEK-syn cells: 65.8%; phospho-synuclein by ELISA, PLK2 cDNA transfected into 293-synuclein cells: 4.3 fold
18.9 |  | G protein-coupled receptor kinase 6 (from UniProt P43250 1-576) (enzyme) | 
 | 8.9 | CDC7 cell division cycle 7-like 1 (from UniProt O00311 1-574) (enzyme) | 
 | 8.9 | Aortic preferentially expressed gene 1 (from UniProt Q15772 1-113) (enzyme) | 

Reference: patent publication US20110207796A1, “ALPHA-SYNUCLEIN KINASE” (Elan Pharma International Limited, priority 2008, published 2011)
